{"source": "paper PMC9762590", "about": "(PLOS Pathogens, 2022)", "key": {"[1]": {"molecular_target": "T1, NANP5.5-1210 Fab-LS-Th2R nanoparticles (Plasmodium falciparum (3D7/NF54-type …, UniProt Q7K740))", "T1 construct": "5.5 NANP repeat motifs of the PfCSP central repeat (NANP5.5); 8-aa linker; Aquifex aeolicus lumazine synthase (LS) monomer; Aquifex aeolicus lumazine synthase (LS) alone, from the co-transfected LS-pHLsec plasmid; 60-mer LS nanocage; source: HEK293F, transient co-transfection, secreted, purified (StrepTrap, SEC on Superose 6); copies: + +", "T1 chain": "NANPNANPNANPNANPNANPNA", "experiment": "BLI; Fabs immobilised on anti-human Fab-CH1 biosensors (10 μg/mL), dipped into nanoparticles; kinetics buffer PBS pH 7.4, 0.01% BSA, 0.002% Tween-20; Octet RED96", "conditions": "both partners purified"}, "NANP6 peptide": {"molecular_target": "T2, NANP6 peptide (Plasmodium falciparum (synthetic repeat …, N-terminal biotin-aminohexanoic acid tag; unmodified C-terminus)", "T2 construct": "PfCSP central repeat motifs; source: synthetic peptide (CPC Scientific)", "T2 chain": "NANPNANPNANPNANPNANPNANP", "experiment": "SPR; Carterra LSA, CMD200M chip, 25°C; mAbs directly amine-coupled, PfCSP peptides as analytes (two-fold series, top 8 μg/ml) in 1X HBSTE; 1:1 Langmuir fit; KD includes avidity effect for antigens with multiple repeats", "conditions": "both partners purified"}}, "data": [{"binder": "1210 Fab (Fab, V domains shown) VH: QVQLVESGGGVVQPGRSLRLSCAASGFTFSNYGMHWVRQAPGKGLEWVAVIWYDGSKKYYADSVKGRFTISRDNSKNTLYLQMNSLRAEDTAVYYCARVRDSSDYYGDAFDIWGQGTMVTVSS VL: DIQMTQSPSTLSASVGDRVTITCRASQSISSWLAWYQQKPGKAPKLLIYKASNLESGVPLRFSGSGSGTEFTLTISSLQPDDFATYYCQQYNNYWTFGQGTKVEIK", "values": [{"measurement": "binding result", "setting": "[1]", "value": "binds"}]}, {"binder": "Fab 2541 (Fab, V domains shown) VH: QVQLVESGGGVVQPGRSLRLSCAASGFTFSSYGMHWVRQTTGKGLEWVAIIWHDGSKKYYADSVKGRLTISRDNSKNTLYLQMNSLRVEDTALYYCARVGDYSDFKYGAFDIWGQGTMVTVSS VL: DIQMTQSPSTLSASVGDRVTITCRASQSISSWLAWYQQKPGKAPNLLIYKASTLESGVPSRFSGSGSGTEFTLTISSLQPDDFATYYCQQYNSYWTFGQGTRVEIK", "values": [{"measurement": "binding result", "setting": "[1]", "value": "binds"}]}, {"binder": "monoclonal antibody (mAb) 850 (antibody, V domains shown, VH of mAb 850 (IGHV3-33); human IgG1 heavy chain constant region (antibodies expressed as fully human IgG1); VK of mAb 850 (IGKV1-5); human Ig kappa constant region (antibodies expressed as fully human IgG1); IgG1, kappa; source: recombinantly expressed as fully human IgG1; re-expressed in CHO-3E7 cells, purified (MabSelect SuRe LX)) VH: QVQLVESGGGVVQPGRSLRLSCAASGFTFSNFGMHWIRQSPGKGLEWVAIIWYDGSNTYYADSVKGRFTISRDNSKNTLYLQMNSLRAEDTAVYYCAKVWFGESEDNYSVDVWGQGTTVTVSS VL: DIQMTQSPSTLSTSVGDRVTITCRASQSISNWLAWYQQKPGKAPKLLIYKASTLESGVPSRFSGSGSGTEFTLTISSLQPDDFATYYCQQYSSYWTFGQGTKLEIK", "values": [{"measurement": "Kd", "setting": "NANP6 peptide", "value": 0.025, "unit": "nM"}]}]}
